± gives the standard error. For some assays here: Fewer inactive variants are shown than the library holds.
B1: glmS ribozyme (parent)
chain: AUAAAAGCGCCAGAACUACAGAAAUGUAGUUGACGAGGAGGAGGUUUAUCGAAUUUUCGGCGGAUGCCUCCAAA

Columns and labels:
Settings in all cases: with glucosamine-6-phosphate
glucosamine-6-phosphate [1] = variants of: B1; assay: kcat; higher = faster cleavage; RNA array
How it was run: (§1)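 Glucosamine-6-phosphate (40 μM to 10 mM) in HEPES/KCl/Mg(OAc)2 buffer was flowed over sequenced MiSeq chips, and tiles were imaged over ~14 h. Barcoded ribozyme variants there had been transcribed in situ by E. coli RNA polymerase and were tracked through a hybridised Cy3 probe at 37 °C. One- or two-exponential decay fits to per-tile medians, normalised to baseline and to non-cleaving reference variants, gave kobs. kcat and KM came from weighted Michaelis–Menten fits across concentrations.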

glucosamine-6-phosphate [2] = variants of: B1; assay: self-cleavage kobs at 40 uM GlcN6P; higher = faster cleavage; RNA array
How it was run: as §1

glucosamine-6-phosphate [3] = variants of: B1; assay: self-cleavage kobs at 640 uM GlcN6P; higher = faster cleavage; RNA array
How it was run: as §1

glucosamine-6-phosphate [4] = variants of: B1; assay: self-cleavage kobs at 2500 uM GlcN6P; higher = faster cleavage; RNA array
How it was run: as §1

glucosamine-6-phosphate [5] = variants of: B1; assay: self-cleavage kobs at 10000 uM GlcN6P; higher = faster cleavage; RNA array
How it was run: as §1

glucosamine-6-phosphate [6] = variants of: B1; assay: KM; higher = weaker cofactor use; RNA array
How it was run: as §1

glucosamine-6-phosphate [7] = variants of: B1; assay: self-cleavage kobs at 160 uM GlcN6P; higher = faster cleavage; RNA array
How it was run: as §1

Variant | kcat (glucosamine-6-phosphate [1]) [s⁻¹] | self-cleavage kobs at 40 uM GlcN6P (glucosamine-6-phosphate [2]) [s⁻¹] | self-cleavage kobs at 640 uM GlcN6P (glucosamine-6-phosphate [3]) [s⁻¹] | self-cleavage kobs at 2500 uM GlcN6P (glucosamine-6-phosphate [4]) [s⁻¹] | self-cleavage kobs at 10000 uM GlcN6P (glucosamine-6-phosphate [5]) [s⁻¹] | KM (glucosamine-6-phosphate [6]) [µM] | self-cleavage kobs at 160 uM GlcN6P (glucosamine-6-phosphate [7]) [s⁻¹]
AUAAAAGCGCCAGAACUACAGAAAUGUAGUUGACGAGGAGGAGGUCUAUCGUAUUUUCGGCGGAUGCCUCCAAA [U46C A52U] | 0.0006 ± 0.00022 | < 1e-05 | 3.24e-05 ± 1.6e-05 | 6.32e-05 ± 1.1e-05 | 0.000199 ± 2.3e-05 |  | 
AUAAAAGCGCCAGAACUACAGAAAUGUAGUUGACGAGGAGGAGGUAUAUCGAAUGUUCGGCGGAUGCCUCCAAA [U46A U55G] | 0.0019 ± 0.00044 | 5.8e-05 ± 7.5e-06 | 0.000893 ± 0.00011 | 0.001 ± 0.00022 | 0.00169 ± 0.00022 | 1350 ± 440 | 0.000169 ± 2.3e-05
AUAAAAGCGCCAGAACUACAGAAAUGUAGUUGACGAGGAGGAGGUCGAUCGAAUUUUCGGCGGAUGCCUCCAAA [U46C U47G] | 0.0024 ± 0.00028 | 3.18e-05 ± 8e-06 | 0.000457 ± 8e-05 | 0.0014 ± 0.00026 | 0.00183 ± 0.00026 | 2600 ± 440 | 0.00015 ± 2.6e-05
AUAAAAGCGCCAGAACUACAGAAAUGUAGUUGACGAGGAGGAGGUCUAUCGAAUUUUCGGCGGAUACCUCCAAA [U46C G66A] | 0.000975 ± 0.00019 | 5.14e-05 ± 1e-05 | 0.000364 ± 9.2e-05 | 0.000662 ± 0.00023 | 0.00107 ± 0.00025 | 799 ± 250 | 
AUAAAAGCGCCAGAACUACAGAAAUGUAGUUGACGAGGAGGAGGUACAUCGAAUUUUCGGCGGAUGCCUCCAAA [U46A U47C] | 0.00192 ± 0.00044 | 5.61e-05 ± 1.2e-05 | 0.00034 ± 5.6e-05 | 0.00121 ± 0.00021 | 0.00157 ± 0.00019 | 2240 ± 840 | 0.000141 ± 2.8e-05
AUAAAAGCGCCAGAACUACAGAAAUGUAGUUGACGAGGAGGAGGUCUAUCGAAUUUUCGGCGGAUGCCUCCAAA [U46C] | 0.00387 ± 0.00034 | 0.000108 ± 2.5e-06 | 0.00126 ± 3.5e-05 | 0.00342 ± 0.00018 | 0.00329 ± 7.7e-05 | 1410 ± 170 | 0.000364 ± 1.3e-05
AUAAAAGCGCCAGAACUACAGAAAUGUAGUUGACGAGGAGGAGGUCUAUCGAUUUUUCGGCGGAUGCCUCCAAA [U46C A53U] | 0.00168 ± 0.00018 | 3.88e-05 ± 1.2e-05 | 0.000471 ± 9.9e-05 | 0.0012 ± 0.00023 | 0.00133 ± 0.00028 | 1640 ± 260 | 0.000145 ± 3.3e-05
AUAAAAGCGCCAGAACUACAGAAAUGUAGUUGACGAGGAGGAGGUCUAUCGAGUUUUCGGCGGAUGCCUCCAAA [U46C A53G] | 0.00366 ± 0.0005 | 8.69e-05 ± 1.5e-05 | 0.00119 ± 0.00015 | 0.0025 ± 0.00035 | 0.00272 ± 0.00067 | 1430 ± 280 | 0.000402 ± 6.7e-05
AUAAAAGCGCCAGAACUACAGAAAUGUAGUUGACGAGGAGGAGGUCUAUCGAAUUUUCGGCGGAUGCCUUCAAA [U46C C70U] | 0.00656 ± 0.0027 | 0.00017 ± 2.3e-05 | 0.00156 ± 0.00017 | 0.00301 ± 0.00041 | 0.00508 ± 0.00066 |  | 0.00026 ± 3.8e-05
AUAAAAGCGCCAGAACUACAGAAAUGUAGUUGACGAGGAGGAGGUCUAUCGAAUUUUCGGCGGAUGACUCCAAA [U46C C67A] | 0.000818 ± 0.00012 | 3.57e-05 ± 1.7e-05 | 0.000284 ± 5.6e-05 | 0.00062 ± 0.00012 | 0.000676 ± 0.00011 | 1380 ± 390 | 6.58e-05 ± 2.1e-05
AUAAAAGCGCCAGAACUACAGAAAUGUAGUUGACGAGGAGGAGGUCUAUCGAAUUUUCGGCGGAUGGCUCCAAA [U46C C67G] | 0.000658 ± 5.5e-05 |  | 0.000154 ± 5.6e-05 | 0.000431 ± 6.7e-05 | 0.000561 ± 6.7e-05 | 1560 ± 320 | 6.94e-05 ± 1.9e-05
AUAAAAGCGCCAGAACUACAGAAAUGUAGUUGACGAGGAGGAGGUCUAUCGAAUUUUUGGCGGAUGCCUCCAAA [U46C C58U] | 3.35e-05 ± 5.4e-07 | < 1e-05 |  |  | 2.93e-05 ± 9e-06 | 1400 ± 110 | 
AUAAAAGCGCCAGAACUACAGAAAUGUAGUUGACGAGGAGGAGGUCUAUCGAAUUUUAGGCGGAUGCCUCCAAA [U46C C58A] | 0.000527 ± 0.00012 |  | 2.77e-05 ± 9.7e-06 | 7.47e-05 ± 1.3e-05 | 0.00022 ± 3.4e-05 |  | 

Reference: the supplement of paper PMC7125110
